In article PMC11885566:

Target: stable soluble Omicron EG.5.1 (6P) S trimer (SARS-CoV-2)
Assay: cryo-EM structure

## stable soluble Omicron EG.5.1 (6P) S trimer (domain or fragment)
  stoichiometry N: 3
